The supplement of paper PMC12042874
± gives the uncertainty stated by the source.

Experiment: amyloid nucleation score (Sup35N fusion, yeast selection) (log enrichment); library NNK1; higher = more nucleation; inactive = no reads after selection
Outline: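 Peptides of 20 random codons fused to Sup35N were expressed in psi-negative yeast, induced 24 hours with 100 μM copper sulfate, then grown 7 days at 30°C on medium lacking adenine and uracil. Input and output plasmid inserts were Illumina-sequenced. Nucleation score is the DiMSum log enrichment of output over input reads, centred on the mode score of non-aggregating sequences, excluding sequences with under 100 input reads. Random libraries had three technical output replicates.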

Row | Substance | amyloid nucleation score
1 | HTEYRKYRVCTFLK | 0.826 ± 0.4
2 | FSGVMLVEWLTSPRHLRRAL | 0.678 ± 1.1
3 | CCDDIRTQDLALRAQIP | -0.21 ± 0.32
4 | MIVYNMFGMNYYLFILDG | 7.508 ± 0.048
5 | PLCLNRVMISAMGVRVR | -0.285 ± 0.73
6 | ITLIGQHRFLLVFSTNQLNH | 0.46 ± 0.3
7 | AILVHCSVLTVA | 0.584 ± 0.66
8 | YVEKVSFTAIEWWRGQLQSV | 0.565 ± 0.47
9 | GIWPLGFGKFGSIFRFANVR | 0.939 ± 0.6
10 | LNCPFYIFFLLHTVSA | 6.608 ± 0.065
11 | ENYTCRTWAPLSGPRIWVGS | 0.661 ± 0.77
12 | NVYKFCDRAGLCAVGYYLGT | 3.02 ± 0.081
13 | DVYVSCGYVSQMGPHAEWDG | 0.102 ± 0.54
14 | TVASRFEFYTKDWAYRNGRL | 1.76 ± 0.33
15 | LYRAAEYSLRILRLKATYPA | -0.134 ± 0.89
16 | NSDGSLSKTRKRAGAQVSRQ | 0.312 ± 1.1
17 | GKKTRRLYVKWSSSFLNWMK | 0.28 ± 0.85
18 | AVPCSC | 0.189 ± 0.3
19 | FIPQFYSVAMKLGCVRFVVL | 0.577 ± 0.56
20 | MRWSIFRSTWFCAYSSLVSS | 0.131 ± 0.5
21 | CFLETMDFGH | -0.472 ± 1.2
22 | DGLKGSLCGMGHRLCLKKMN | 0.131 ± 0.41

Row | Substance | amyloid nucleation score
23 | YTVSNQLLSRLRGVQHNKLK | -1.11 ± 0.92
24 | CKDFRRAVVNEFPVSVSFYC | 0.922 ± 0.9
25 | DMNDYSK | -0.592 ± 0.39
26 | MICMD | -0.27 ± 0.3
27 | VQFSLGALFWWPWGR | 2.27 ± 0.22
28 | CGITGMATVLNELPKLKHML | 0.202 ± 0.62
29 | VDNSCFRGT | -0.391 ± 0.66
30 | TMYSVYRFVGCKKSFMVRKG | 0.454 ± 0.4
31 | IEVGYLSTCEFLVRMRKL | 0.346 ± 0.51
32 | MSEENSTNIIYSIVPKSL | inactive
33 | WMWGGGRWRRVPRRCMVVGR | -0.054 ± 0.4
34 | GVDRVRQCRARALDFSIGS | -0.372 ± 0.62
35 | SNFINLGRWFRIDL | 0.377 ± 0.53
36 | CICTRGMGSLSDCYELR | 0.689 ± 0.46
37 | CGEFGR | -0.682 ± 0.52
38 | VLARNRWRRKWRHTRGWVRG | 0.157 ± 1.4
39 | SLSRD | -0.393 ± 0.41
40 | SKWLIRGCL | 1.6 ± 0.21
41 | AGKHLGNNIRYILVYGESFR | -1.09 ± 0.85
42 | WNEVILILDNCAIVCYDILT | 4.05 ± 0.054
43 | AMKVFYDMWKTACY | -0.507 ± 0.7
44 | GGGSMAGAERPGGLGQVRCN | 1.2 ± 0.6

Row | Substance | amyloid nucleation score
45 | WRSSSFSGIWYVSVGYNASL | -0.455 ± 0.4
46 | YGTNKISVALWS | -0.054 ± 0.79
47 | VFMMSDTC | inactive
48 | LRTISNVDLLSVS | 0.138 ± 0.54
49 | FPQLGLG | inactive
50 | YVADGLKDKQRCSACFDASS | 4.93 ± 0.063
51 | VPANEFCMADIMHRANRMLG | 0.758 ± 0.71
52 | SIDGWNSKVKGFEFRMGGT | -0.045 ± 0.32
53 | VMLMCYPLTRPRCGTERNMF | 0.091 ± 0.49
54 | WISEYGWFRIKFAWAAYGYR | -0.023 ± 0.72
55 | FRGWV | 1.62 ± 0.12
56 | YVTVEIMGYVTKVVTITLW | -0.419 ± 0.44
57 | LCKVPLNT | 1.36 ± 0.9
58 | VRLLEHSANPSMGKMNMNVG | 0.231 ± 0.74
59 | GKLDCVKVLNVHCP | 0.527 ± 0.61
60 | CIFHL | 0.303 ± 0.65
61 | VTRYRTLTRHWWS | 0.277 ± 0.39
62 | RFSAK | 0.585 ± 0.33
63 | DWLFVGGGR | 0.131 ± 0.56
64 | ISFSSYYNLVLDYLELSQCL | inactive
65 | GVVSFNFDSLQF | -0.471 ± 0.65
66 | TSRGGLFYSGVLICAGGIRM | -0.032 ± 0.54

Row | Substance | amyloid nucleation score
67 | LVVCAVVGSDLLWL | 0.848 ± 0.72
68 | WFLCSSRFISLLQ | -1.49 ± 0.47
69 | YQYNATFFPSITRTNLETKG | 0.337 ± 0.49
70 | GFTDYNRVRYKVLTVVFDYG | -1.51 ± 0.95
71 | RLYTFVLPRFILLEKRHSTN | 0.255 ± 0.32
72 | LWYSFNVHTVHYYQCSDIYS | -0.142 ± 0.26
73 | RVDHVGRGQSREGGPDAGRV | 0.217 ± 0.26
74 | TVMFCRQWVFNCVFFIDIVK | 1.31 ± 0.1
75 | MLSGSVAESKNLIQLCAFFM | 6.704 ± 0.047
76 | FVPIF | -0.208 ± 0.72
77 | FRSNGQNLVTAISSMDVRAN | -2.14 ± 2.7
78 | KVQIY | -0.968 ± 0.36
79 | ESVDGTSHAVGIMNGRLKID | 1.93 ± 0.1
80 | YCPSC | 0.859 ± 0.42
81 | QTNMMSTHHP | 0.39 ± 0.41
82 | SYIGDCEIFIKEPVGANNLE | -0.909 ± 2.7
83 | VRWCYILQQ | inactive
84 | KLDNCGCGRGCEQLDVVQSQ | 0.044 ± 0.53
85 | CWLMGMSGPPFDRVWGVVIR | -0.086 ± 1.2
86 | LKISWR | 0.724 ± 0.36
